In patent US20250388672A1:
One block for each binder: values may come before it.

Columns and labels:
[1] = target: human TCR(2IAN)/CD3 expressed on HEK293H cells (human) (UniProt P04234); test: flow cytometry on HEK293H cells expressing human TCR(2IAN)/CD3
[2] = target: human CD3 expressed on HEK293H cells (human) (UniProt P20963); test: flow cytometry on HEK293H cells expressing human CD3
[3] = target: human TCR/CD3 complex on purified primary human T cells (human); test: flow cytometry on primary human T cells
Sequence of human TCR/CD3 complex on purified primary human T cells (human) (delta, as listed by the source limits assumed, form in doubt, chain 1 of 4): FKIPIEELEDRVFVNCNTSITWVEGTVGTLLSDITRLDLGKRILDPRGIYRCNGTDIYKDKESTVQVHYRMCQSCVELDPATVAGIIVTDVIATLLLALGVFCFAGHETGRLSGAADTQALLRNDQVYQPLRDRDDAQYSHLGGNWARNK
Sequence of human TCR/CD3 complex on purified primary human T cells (human) (gamma, as listed by the source limits assumed, form in doubt, chain 2 of 4): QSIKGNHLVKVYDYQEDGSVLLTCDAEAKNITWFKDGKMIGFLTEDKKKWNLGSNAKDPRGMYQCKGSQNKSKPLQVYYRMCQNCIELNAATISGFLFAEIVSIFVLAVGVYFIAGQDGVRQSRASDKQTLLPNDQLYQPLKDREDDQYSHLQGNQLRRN
Sequence of human TCR/CD3 complex on purified primary human T cells (human) (epsilon, as listed by the source limits assumed, form in doubt, chain 3 of 4): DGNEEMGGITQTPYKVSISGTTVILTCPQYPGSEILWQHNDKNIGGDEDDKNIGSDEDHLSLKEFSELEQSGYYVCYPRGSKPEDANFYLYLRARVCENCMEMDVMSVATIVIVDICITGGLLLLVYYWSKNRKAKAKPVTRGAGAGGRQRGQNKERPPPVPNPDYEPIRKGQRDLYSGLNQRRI
Sequence of human TCR/CD3 complex on purified primary human T cells (human) (zeta, as listed by the source limits assumed, form in doubt, chain 4 of 4): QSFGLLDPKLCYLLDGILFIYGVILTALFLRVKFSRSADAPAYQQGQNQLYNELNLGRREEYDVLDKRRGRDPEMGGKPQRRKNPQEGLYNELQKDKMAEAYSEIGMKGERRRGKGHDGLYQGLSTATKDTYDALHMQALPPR

Sequence of human CD3 expressed on HEK293H cells (human) (chain, as listed by the source limits assumed, chain 1 of 4): as the sequence (delta, as listed by the source limits assumed, form in doubt, chain 1 of 4) above
Sequence of human CD3 expressed on HEK293H cells (human) (chain, as listed by the source limits assumed, chain 2 of 4): as the sequence (gamma, as listed by the source limits assumed, form in doubt, chain 2 of 4) above
Sequence of human CD3 expressed on HEK293H cells (human) (chain, as listed by the source limits assumed, chain 3 of 4): as the sequence (epsilon, as listed by the source limits assumed, form in doubt, chain 3 of 4) above
Sequence of human CD3 expressed on HEK293H cells (human) (P20963 22-164 limits assumed, chain 4 of 4): as the sequence (zeta, as listed by the source limits assumed, form in doubt, chain 4 of 4) above

EC50 [1]: > 100 nM
MCF at 1 µM/top [1]: 15900 MCF
EC50 [2]: > 100 nM
MCF at 1 µM/top [2]: 3300 MCF
B1: T0170011A10 (VHH, not shown: small tags and cut ends)
VHH: EVQLVESGGGLVQGGGSLSLSCAASGRTFSSYAMAWFRQPPGKEREFVASISWSGENTNYRNSVKGRFTISRDNAKNTVYLQMNSLKPEDTAVYYCAAKIAKTYPDNWYWTKSNNYNYWGQGTQVTVSS

EC50 [1]: > 100 nM
MCF at 1 µM/top [1]: 4950 MCF
EC50 [2]: > 100 nM
MCF at 1 µM/top [2]: 2850 MCF
B2: T0170052G04 (VHH, not shown: small tags and cut ends)
VHH: EVQLVESGGGAVQPGGSLRLSCAASGIRISRNMMGWFRQAPGKQRDLVARITPGGDTYYVDSVKGRFSISKDNAKNTVYLQMNSLKPEDTAVYYCNSYSTLGSWGQGTQVTVSS

EC50 [3]: > 100 nM
B3: T017000016 (bispecific antibody)
chain: EVQLVESGGGLVQPGGSLRLSCTFSGGTFSSYTMGWFRQAPGKEREFVAEVRWGGVTTYSNSLKDRFSISEDSVKNAVYLQMNSLKPEDTAVYYCAAVRQMYMTVVPDYWGQGTLVTVSSGGGGSGGGGSGGGGSGGGGSGGGGSGGGGSGGGGSEVQLVESGGGSVQAGGSLRLSCAASGRTFSTNPMGWFRQVPGKERELIAAVRWADGNTFYADSVKGRFTISRDNAKKTVYLQMNSLKSEDTATYYCAAGRPWSAYHSPAEYVHWGQGTLVTVSSGAADYKDHDGDYKDHDIDYKDDDDKGAAHHHHHH
